Results as given in PMC4191393, “Selective microRNA uridylation by Zcchc6 (TUT7) and Zcchc11 (TUT4)”.

Biological target: T1, r.Zcchc11 (TUT4) (Homo sapiens, UniProt Q5TAX3 225-1384)
T1 sequence: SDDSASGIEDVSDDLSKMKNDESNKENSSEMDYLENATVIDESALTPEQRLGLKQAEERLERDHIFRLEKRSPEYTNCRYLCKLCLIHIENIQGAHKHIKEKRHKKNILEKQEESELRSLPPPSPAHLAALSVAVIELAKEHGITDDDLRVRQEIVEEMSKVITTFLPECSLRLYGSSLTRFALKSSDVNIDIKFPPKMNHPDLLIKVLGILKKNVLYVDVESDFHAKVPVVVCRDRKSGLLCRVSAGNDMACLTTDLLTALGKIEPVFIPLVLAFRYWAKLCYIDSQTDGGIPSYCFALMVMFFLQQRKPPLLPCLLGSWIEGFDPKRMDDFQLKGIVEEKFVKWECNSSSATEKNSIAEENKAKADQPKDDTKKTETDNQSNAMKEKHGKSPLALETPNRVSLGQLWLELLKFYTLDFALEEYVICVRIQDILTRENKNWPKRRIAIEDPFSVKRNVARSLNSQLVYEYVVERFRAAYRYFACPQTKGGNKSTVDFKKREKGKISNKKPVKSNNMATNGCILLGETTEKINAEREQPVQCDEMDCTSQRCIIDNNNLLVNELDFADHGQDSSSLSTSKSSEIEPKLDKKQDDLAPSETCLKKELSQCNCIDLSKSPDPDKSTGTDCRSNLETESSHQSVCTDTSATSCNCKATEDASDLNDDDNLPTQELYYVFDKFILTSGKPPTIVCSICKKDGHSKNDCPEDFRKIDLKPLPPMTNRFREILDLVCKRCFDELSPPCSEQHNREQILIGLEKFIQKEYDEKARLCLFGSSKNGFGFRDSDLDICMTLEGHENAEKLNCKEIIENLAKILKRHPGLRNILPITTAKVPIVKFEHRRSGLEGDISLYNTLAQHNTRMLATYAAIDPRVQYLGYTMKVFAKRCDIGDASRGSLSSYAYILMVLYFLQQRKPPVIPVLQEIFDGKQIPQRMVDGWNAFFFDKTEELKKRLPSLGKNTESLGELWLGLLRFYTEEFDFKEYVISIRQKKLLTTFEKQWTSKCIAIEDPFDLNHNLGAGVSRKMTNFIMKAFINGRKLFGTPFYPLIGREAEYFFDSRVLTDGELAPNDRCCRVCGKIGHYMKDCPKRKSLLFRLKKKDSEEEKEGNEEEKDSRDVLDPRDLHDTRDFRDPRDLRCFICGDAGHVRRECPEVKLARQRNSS
Experiment: EMSA; 2 mM Mg2+; RNA 2.5 nM; EMSA: 500 mM NaCl, 20 mM HEPES pH 7.5, 2 mM MgCl2, 5% glycerol, 1 mM TCEP; 10 ul, 3-50 ng protein, 2.5 nM RNA; native 12% PAGE in 0.5x TBE; temperature not stated
Settings: protein: recombinant; tags: N-terminal His6-Trx, removed with TEV; label: 5'-32P; single strand

UGAGGUAGUAGUUUGUACAGUU (ssRNA) [let-7g guide]
binding result: binds
